Data published in US20090269336A1 (TAIWAN LIPOSOME, published 2009).

Columns and labels:
recombinant VEGF3-114 [1] = biological target: T1, recombinant VEGF3-114 (human, UniProt P15692 209-320); test: competitive ELISA: VC300 mAb equilibrated with soluble VEGF3-114, then added to wells coated with VEGF3-114
T1 construct: Expressed in E. coli
T1 sequence: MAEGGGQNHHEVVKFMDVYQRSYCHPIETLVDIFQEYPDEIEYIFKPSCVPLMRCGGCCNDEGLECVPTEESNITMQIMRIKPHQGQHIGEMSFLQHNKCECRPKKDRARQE
Description: The VC300 mAb was purified from mice ascites by ammonium sulfate precipitation and CM Sepharsoe chromatography (GE Healthcare, Piscataway, N.J.). The purified VC300 mAb was analyzed by 7.5% SDS-PAGE and the protein concentration was quantitated by the absorbance at 280 nm. Isotype determination of VC300 mAb was carried out by a monoclonal antibody isotyping kit I obtained from PIERCE (Rockford, Ill., USA). The dissociation constant (Kd) of antigen-antibody interaction was determined by competitive ELISA [Lin et al., (1997) Anal. Biochem., 254: 9-17]. In brief, the antigen, VEGF₃₋₁₁₄, at various concentrations was incubated with the antibody, VC300 mAb at 4° C. for overnight to reach equilibrium. The mixtures were transferred to the wells coated with 3 μg/ml of VEGF₃₋₁₁₄ and incubated at room temperature for 1 h. […] Absorbance at 450 nm was measured and the Kd value was calculated as described previously.

VEGF3-33 = biological target: T2, VEGF3-33 (human); test: Western blot of E. coli lysates
T2 construct: Truncated VEGF fragment expressed in E. coli as a fusion protein detected by anti-penta-His; Tested denatured in cell lysate by Western blot
T2 chain: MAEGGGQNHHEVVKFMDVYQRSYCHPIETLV
Description: (§1) To elucidate the binding epitope of VC300 mAb, the VEGF₃₋₁₁₄ (SEQ ID NO: 8) and five VEGF fragments, VEGF₃₋₃₃, VEGF₃₋₆₃, VEGF₃₋₉₃, VEGF₃₋₁₀₀, and VEGF₃₋₁₀₇ (see FIG. 1B), were used in the mapping. Nucleotide sequences of all these constructs were verified by DNA sequencing. Expression profiles of fusion proteins were analyzed by 12.5% SDS-PAGE and Western blot analysis with anti-penta-His monoclonal antibody (Qiagen, Valencia, Calif.). The lysates were used in verification of the binding epitope of VC300 mAb.
(§2) E. coli cells containing various truncated fragments of VEGF cDNA in expression vector were induced to express recombinant proteins with 0.4 mM isopropyl-β-D-thiogalactopyranoside (IPTG, Sigma-Aldrich, St. Louis, Mo.) at 37° C. for 3 h and the cells were harvested by centrifugation at 10,000 rpm for 2 min. The cell pellets were suspended and lysed with protein sample buffer, boiled for 10 min and analyzed by a 12.5% SDS-PAGE. For Western blot analysis, the gels were electroblotted onto PVDF membranes and the membranes were blocked with 5% skim milk in phosphate-buffered saline, pH 7.4 containing 0.05% Tween 20 at RT for 1 h, probed with a 1:1000 dilution of anti-penta-His monoclonal antibody or VC300 mAb followed by reaction with HRP-conjugated goat anti-mouse immunoglobulin (Chemicon Int., Temecula, Calif.). The binding reaction was detected by the addition of the diaminobenzidine (Sigma-Aldrich, St. Louis, Mo.) color development reagent, 0.05% diaminobenzidine, 0.005% hydrogen peroxide in 0.1 M Tris-HCl, pH 7.4.

VEGF3-63 = biological target: T3, VEGF3-63 (human, UniProt P15692 209-269); test: Western blot of E. coli lysates
T3 construct: Truncated VEGF fragment expressed in E. coli as a fusion protein detected by anti-penta-His
T3 sequence: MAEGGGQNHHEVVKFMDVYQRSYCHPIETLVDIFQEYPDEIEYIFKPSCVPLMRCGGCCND
Description: as §1, §2

VEGF3-100 = biological target: T4, VEGF3-100 (human, UniProt P15692 209-306); test: Western blot of E. coli lysates
T4 construct: Truncated VEGF fragment expressed in E. coli as a fusion protein detected by anti-penta-His
T4 sequence: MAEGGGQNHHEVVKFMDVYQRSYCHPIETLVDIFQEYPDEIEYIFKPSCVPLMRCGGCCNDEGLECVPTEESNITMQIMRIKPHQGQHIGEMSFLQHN
Description: as §1, §2

VEGF3-93 = biological target: T5, VEGF3-93 (human, UniProt P15692 209-299); test: Western blot of E. coli lysates
T5 construct: Truncated VEGF fragment expressed in E. coli as a fusion protein detected by anti-penta-His
T5 sequence: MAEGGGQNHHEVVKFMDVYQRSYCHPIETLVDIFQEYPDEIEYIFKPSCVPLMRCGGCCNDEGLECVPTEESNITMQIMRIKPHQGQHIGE
Description: as §1, §2

recombinant VEGF3-114 [2] = biological target: T1, recombinant VEGF3-114; test: cell-based or functional assay

- Kd (recombinant VEGF3-114 [1]): ~2 nM
- IC50 of inhibition of VEGF-induced HUVEC proliferation (BrdU incorporation, 13.6 ng/ml VEGF3-114) (recombinant VEGF3-114 [2]): ~1 nM
B1: VC300 mAb (antibody, IgG1, V domains shown)
VH: EIQLLQSGPELVKPGASVKISCKASGYSFTGYFMNWVMQSHGRTLEWIGRINPYTGETLYNQKFKDKATLTAEISSSTAHMELRSLASDDSAVYFCARRGYAGSGGIYSMDSWGPGTSVTVSS
VL: EIVLTQSPAIMSASLGERVTMTCTASSAVSSSYLHWYHQKPGSSPKLWIFSTSNLASGVPSRFTGSGSGTSYSLTISSVEAEDAATYYCHQYHRSPYTFGAGTKLELN
notes: Mouse hybridoma antibody (BALB/c), purified from mouse ascites; isotype determined to be IgG1; constant regions are not; also called anti-VEGF monoclonal antibody
- binding result (VEGF3-33): no binding (tested: 1:1000 dilution of VC300 mAb)
- binding result (VEGF3-63): no binding (tested: 1:1000 dilution of VC300 mAb)
- binding result (VEGF3-100): no binding (tested: 1:1000 dilution of VC300 mAb)
- binding result (VEGF3-93): no binding (tested: 1:1000 dilution of VC300 mAb)
